Measured values reported in PMC2714943 (Biochemistry, 2009).

Legend:
[1] = biological target: (+)-δ-cadinene synthase (DCS, isozyme XC1) (Gossypium arboreum, UniProt Q39761)
[2] = tested on: CC(C)=CCC/C(C)=C/CC/C(C)=C/CO[P@@](=O)(O)OP(=O)(O)O; test: purified protein; type: biochemical, Gossypium arboreum; details: Mg2+

Sequence of (+)-δ-cadinene synthase (DCS, isozyme XC1) (Q39761 whole entry): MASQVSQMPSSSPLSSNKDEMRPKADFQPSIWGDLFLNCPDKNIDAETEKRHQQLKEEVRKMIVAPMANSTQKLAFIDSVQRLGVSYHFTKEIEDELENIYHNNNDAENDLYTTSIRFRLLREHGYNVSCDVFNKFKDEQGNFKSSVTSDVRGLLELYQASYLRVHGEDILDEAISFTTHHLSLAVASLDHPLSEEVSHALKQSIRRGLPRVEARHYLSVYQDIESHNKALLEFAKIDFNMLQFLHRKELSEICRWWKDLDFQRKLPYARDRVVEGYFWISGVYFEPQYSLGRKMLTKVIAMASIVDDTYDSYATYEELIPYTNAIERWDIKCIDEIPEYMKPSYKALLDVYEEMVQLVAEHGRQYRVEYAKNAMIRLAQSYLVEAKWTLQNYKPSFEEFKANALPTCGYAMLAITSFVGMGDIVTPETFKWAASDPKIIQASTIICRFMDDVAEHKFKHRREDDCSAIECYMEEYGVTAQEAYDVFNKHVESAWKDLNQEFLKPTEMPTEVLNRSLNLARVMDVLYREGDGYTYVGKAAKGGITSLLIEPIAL

Compound	Km [1] [µM]	Km [2] [µM]
CC(C)=CCC/C(C)=C/CC/C(C)=C/CO[P@@](=O)(O)OP(=O)(O)O [FPP]	3.2 ± 0.5	
(+)-δ-cadinene synthase (DCS, isozyme XC1) (Gossypium arboreum; D308A)		43 ± 16
(+)-δ-cadinene synthase (DCS, isozyme XC1) (Gossypium arboreum; D451A)		2.4 ± 0.3
(+)-δ-cadinene synthase (DCS, isozyme XC1) (Gossypium arboreum; D452A)		3.1 ± 1.2
